In IntAct's records for PubMed 10523676:

B1: DNA polymerase alpha catalytic subunit (Mus musculus), P33609 (parent)
chain: MAPMHEEDCKLEASAVSDSGSFAASRARREKKSKKGRQEALERLKKAKAGEKYKYEVEDLTSVYEEVDEEQYSKLVQARQDDDWIVDDDGIGYVEDGREIFDDDLEDDALDTCGKGSDGKAHRKDRKDVKKPSVTKPNNIKAMFIASAGKKTTDKAVDLSKDDLLGDILQDLNTETAQITPPPVLIPKKKRSTGALLNPFSVHTPKAIPSGKPASPVLRNEPLLTPIPLKRAELAGELAQPECPEDEQELGVMEFEDGDFDESMDTEKVDEKPVTAKTWDQETEPVERVEHEADPERGTTSYLENFLPDVSCWDIDQDDESIPQEVQVDSSNLPLVKGADDEQVFQFYWLDAYEDPYNQPGVVFLFGKVWIESVKTHVSCCVMVKNIERTLYFLPREMKFDLNTGKETAIPVTMKDVYEEFDSKISAKYKIMKFKSKIVEKNYAFEIPDVPEKSEYLEVRYSAEVPQLPQNLKGETFSHVFGTNTSSLELFLMNRKIKGPCWLEVKNPQLLNQPISWCKFEVMALKPDLVNVIKDVSPPPLVVMSFSMKTMQNVQNHQHEIIAMAALVHHSFALDKAPPEPPFQTHFCVVSKPKDCIFPCDFKEVISKKNMKVEIAATERTLIGFFLAKVHKIDPDILVGHNICSFELEVLLQRINECKVPYWSKIGRLRRSNMPKLGSRSGFGERNATCGRMICDVEISAKELIHCKSYHLSELVQQILKTERIVIPTENIRNMYSESSYLLYLLEHIWKDARFILQIMCELNVLPLALQITNIAGNIMSRTLMGGRSERNEFLLLHAFYENNYIVPDKQIFRKPQQKLGDEDEEIDGDTNKYKKGRKKATYAGGLVLDPKVGFYDKFILLLDFNSLYPSIIQEFNICFTTVQRVTSEVQKATEDEEQEQIPELPDPNLEMGILPREIRKLVERRKQVKQLMKQQDLNPDLVLQYDIRQKALKLTANSMYGCLGFSYSRFYAKPLAALVTYKGREILMHTKDMVQKMNLEVIYGDTDSIMINTNSTNLEEVFKLGNKVKSEVNKLYKLLEIDIDAVFKSLLLLKKKKYAALVVEPTSDGNYITKQELKGLDIVRRDWCDLAKDTGNFVIGQILSDQSRDTIVENIQKRLIEIGENVLNGSVPVSQFEINKALTKDPQDYPDRKSLPHVHVALWINSQGGRKVKAGDTVSYVICQDGSNLTATQRAYAPEQLQKLDNLAIDTQYYLAQQIHPVVARICEPIDGIDAVLIALWLGLDSTQFRVHQYHKDEENDALLGGPAQLTDEEKYKDCEKFKCLCPSCGTENIYDNVFEGSGLDMEPSLYRCSNVDCKVSPLTFMVQLSNKLIMDIRRCIKKYYDGWLICEEPTCCSRLRRLPLHFSRNGPLCPVCMKAVLRPEYSDKSLYTQLCFYRYIFDADCALEKLTEHEKDKLKKQFFPLRVLQDYRKVKNIAEQFLSWSGYSEVNLSKLFANYAGKS
partner: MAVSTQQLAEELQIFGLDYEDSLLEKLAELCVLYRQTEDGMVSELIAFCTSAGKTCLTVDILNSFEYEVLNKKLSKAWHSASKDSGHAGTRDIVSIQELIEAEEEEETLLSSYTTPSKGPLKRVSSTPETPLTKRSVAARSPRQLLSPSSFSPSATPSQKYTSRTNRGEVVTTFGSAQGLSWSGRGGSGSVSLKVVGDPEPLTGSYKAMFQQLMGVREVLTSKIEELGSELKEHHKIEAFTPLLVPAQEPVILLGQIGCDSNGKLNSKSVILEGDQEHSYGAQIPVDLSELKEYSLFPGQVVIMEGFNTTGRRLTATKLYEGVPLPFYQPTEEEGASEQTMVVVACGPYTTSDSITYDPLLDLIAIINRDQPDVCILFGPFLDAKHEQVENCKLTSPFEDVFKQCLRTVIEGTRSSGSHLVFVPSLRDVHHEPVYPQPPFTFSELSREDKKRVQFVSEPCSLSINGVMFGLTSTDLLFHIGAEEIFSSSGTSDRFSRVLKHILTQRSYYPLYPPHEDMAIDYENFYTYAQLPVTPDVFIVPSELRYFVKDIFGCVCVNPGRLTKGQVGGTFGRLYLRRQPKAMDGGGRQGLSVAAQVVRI

Variants of: B1
Settings: with dpoa2_mouse Pola2, P33611

Variant | effect of a mutation on the interaction
C1375A;C1378A | decreasing interaction
C1287A;C1290A | decreasing interaction
